Assay results published in publication PMC7104183 (Cell Reports, 2018).

Target: ectodomain of human DPP4 (residues 39-766) (human, UniProt P27487 39-766)
Experiment: SPR

B1: MERS-CoV RBD (residues 367-588) (domain or fragment)
chain: EAKPSGSVVEQAEGVECDFSPLLSGTPPQVYNFKRLVFTNCNYNLTKLLSLFSVNDFTCSQISPAAIASNCYSSLILDYFSYPLSMKSDLSVSSAGPISQFNYKQSFSNPTCLILATVPHNLTTITKPLKYSYINKCSRFLSDDRTEVPQLVNANQYSPCVSIVPSTVWEDGDYYRKQLSPLEGGGWLVASGSTVAMTEQLQMGFGITVQYGTDTNSVCPKL
B1: binds.
